Reference: publication PMC8770954 (Frontiers in Immunology, 2021)
Substitutions are numbered along the chain they refer to.

B1: DH827 (human IgG1) (antibody, V domains shown)
VH: EVQLVESGGGVVQPGRSLRLSCAASGFTFSNCAMHWVRQAPGKGLEWVAVISYHGSNKYYADYVKGRFTISRDNSKSTVYLQMNSPRAEDTAVYYCAKEGGAPSGWALDYWGQGTLVTVSS
VL: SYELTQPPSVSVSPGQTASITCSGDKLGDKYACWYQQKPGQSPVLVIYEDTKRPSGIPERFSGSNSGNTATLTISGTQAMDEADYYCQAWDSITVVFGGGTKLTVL
notes: also called human DH827
B2: rhesus macaque FcγRIIIa-1 (I158) (receptor)
chain: EDLPKAVVFLEPQWYRVLEKDSVTLKCQGAYSPEDNSTRWFHNESLISSQTSSYFIAAARVNNSGEYRCQTSLSTLSDPVQLEVHIGWLLLQAPRWVFKEEESIHLRCHSWKNTLLHKVTYLQNGKGRKYFHQNSDFYIPKATLKDSGSYFCRGLIGSKNVSSETVNITITQDLAVSSISSFFPPG
B3: rhesus macaque FcγRIIIa-3 (V158) (receptor)
chain: B2 chain with I156V
modifications: N-glycosylated soluble ectodomain; limits from the UniProt extracellular domain. Mature 158 = precursor 176 (offset 18). Only V158 (against I158 in variant 1) is printed; other allelic differences of
B4: RhDH677.3 IgG1 (antibody, V domains shown)
VH: QVQLVQSGAEVKKPGASVKLSCKASGYTFTSYDINWVRQAPGQGLEWMGWMNPKTGNTGYAQKFQGRVTMTRDTSTSTAYMELSSLRSEDTAVYYCATYRIIAAVGYRYFQYWGQGALVTVSS
VL: AIQMTQSPSSLSASVGDKVTITCRASQGFGNYLAWYQQKPGKVPKLLIYAATTLQSEVPSRFSGSGSGTDFTLTISSLQPEDVATYYCQKYNSAPFTFGQGTRLEIK
notes: also called rhesusized DH677.3
B5: RhDH827 IgG1 (antibody, V domains shown)
VH: EVQLVESGGGLVQPGGSLRLSCAASGFTFSNCAMHWVRQAPGKGLEWVAVISYHGSNKYYADYVKGRFTISRDNSKNMLYLQMNNLKLEDTAVYYCAREGGAPSGWALDYWGQGVLVTVSS
VL: SYELTQSPSVSVSPGQPASITCSGDKLGDKYACWYQQKPGQVPVLVIYEDTKRPSGIPERFSGSNSGNTATLTISGVEAGDEADYYCQAWDSITHVVFGGGTRLTVL
notes: also called rhesusized DH827
B6: human FcγRIIa (R131) (receptor)
chain: QAAAPPKAVLKLEPPWINVLQEDSVTLTCQGARSPESDSIQWFHNGNLIPTHTQPSYRFKANNNDSGEYTCQTGQTSLSDPVHLTVLSEWLVLQTPHLEFQEGETIMLRCHSWKDKPLVKVTFFQNGKSQKFSRLDPTFSIPQANHSHSGDYHCTGNIGYTLFSSKPVTITVQVPSMGSSSPMG
B7: Rh7B2 IgG1 (antibody, V domains shown)
VH: EVQLVESGGGLVQPGGSLRLSCAASGFTFTEYYMSWVRQAPGKGLEWVSYISKNGEYSYYADSVKGRFTISRDNAKNSLSLQMSSLRAEDTAVYYCTRADGLTYFSELLQYIFDLWGQGVLVTVSS
VL: DIVMTQSPDSLAVSLGERVTINCKSSQTLLYSSNNRHSIAWYQQKPGQAPKLLIYWASMRLSGVPNRFSGSGSGTDFTLTISGLQAEDVAVYYCHQYSSHPPTFGQGTKVEIK
notes: also called rhesusized 7B2
B8: 7B2 (antibody, V domains shown)
VH: QVQLVQSGGGVFKPGGSLRLSCEASGFTFTEYYMTWVRQAPGKGLEWLAYISKNGEYSKYSPSSNGRFTISRDNAKNSVFLQLDRLSADDTAVYYCARADGLTYFSELLQYIFDLWGQGARVTVSS
VL: ETTLTQSPDSLAVSPGERATIHCKSSQTLLYSSNNRHSIAWYQQRPGQPPKLLLYWASMRLSGVPDRFSGSGSGTDFTLTINNLQAEDVAIYYCHQYSSHPPTFGHGTRVELR

How the values were obtained:
[1] = target: T1, Env of HIV-1 IMC SF162 on infected CEM.NKR_(CCR5) cells (HIV-1 subtype B SF162, UniProt P19550, strain); assay: flow cytometry on cells; details: one partner purified
T1 construct: source: HIV-1 IMC-infected CEM.NKR_(CCR5) cells, on the cell surface

[2] = target: T2, Env of HIV-1 IMC CH505 on infected CEM.NKR_(CCR5) cells (HIV-1 subtype C CH505 (703010505), strain); assay: flow cytometry on cells; details: one partner purified
T2 construct: source: HIV-1 IMC-infected CEM.NKR_(CCR5) cells, on the cell surface

[3] = target: T3, Env of HIV-1 IMC 1086.C on infected CEM.NKR_(CCR5) cells (HIV-1 subtype C 1086.C, UniProt C6G099, strain); assay: flow cytometry on cells; details: one partner purified
T3 construct: also called HIV-1 1086; source: HIV-1 IMC-infected CEM.NKR_(CCR5) cells, on the cell surface

[4] = target: RhDH677.3 IgG1 (rhesusized variant of human DH677.3) (rhesus macaque (Macaca mulatta)); assay: SPR; imaging SPR (IBIS MX96); IgG immobilised on a carboxymethyldextran sensor (CMD200M) by carbodiimide chemistry with a Continuous Flow Microspotter, printed at 300 and 150 nM; soluble receptor as analyte from 20 uM, 1:3 over 8 points; 5 min association and 5 min dissociation; equilibrium KD (Scrubber 2); details: both partners purified
[5] = target: Rh7B2 IgG1 (rhesusized variant of human 7B2) (rhesus macaque (Macaca mulatta)); assay: as above; details: both partners purified
[6] = target: RM JR4 IgG1 (rhesus macaque mAb, C1C2 Cluster A region) (rhesus macaque (Macaca mulatta)); assay: as above; details: both partners purified
[7] = target: RhDH827 IgG1 (rhesusized variant of human DH827) (rhesus macaque (Macaca mulatta)); assay: as above; details: both partners purified
[8] = target: T4, monomeric full length single chain (FLSC), a covalent dimer of gp120BaL and CD4 (HIV-1 subtype B BaL (gp120); Homo …, UniProt Q6TAP7;P01730); assay: SPR; Biacore 3000; IgG immobilized on a protein A chip, antigen flowed over (FLSC 6.25-200 nM; gp41 peptide 6.4-25.6 μM; V2 peptide 12.5-50 μM); 10 mM HEPES pH 7.5, 150 mM NaCl, 0.05% Tween 20, 25 °C; 1:1 Langmuir model; details: both partners purified
T4 construct: gp120 of HIV-1 BaL; CD4, domain 1 and 2

[9] = target: T5, Env of SHIV SF162.P3 on infected A66 cells (SHIV SF162.P3 Env (stand-in: parental …, UniProt P19550, strain)); assay: flow cytometry on cells; details: one partner purified
T5 construct: source: SHIV-infected A66 cells, on the cell surface

[10] = target: synthetic gp41 peptide (residues 596-606) with C-terminal amidation (HIV-1 subtype B BaL, UniProt Q6TAP7)

RM JR4 IgG1 (rhesus macaque mAb, C1C2 Cluster A region) (rhesus macaque (Macaca mulatta)), sequence (heavy, as listed by the source, chain 1 of 2): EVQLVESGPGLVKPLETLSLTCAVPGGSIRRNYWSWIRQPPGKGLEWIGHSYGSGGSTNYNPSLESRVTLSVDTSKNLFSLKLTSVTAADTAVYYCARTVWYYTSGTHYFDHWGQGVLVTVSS
RM JR4 IgG1 (rhesus macaque mAb, C1C2 Cluster A region) (rhesus macaque (Macaca mulatta)), sequence (light, as listed by the source, chain 2 of 2): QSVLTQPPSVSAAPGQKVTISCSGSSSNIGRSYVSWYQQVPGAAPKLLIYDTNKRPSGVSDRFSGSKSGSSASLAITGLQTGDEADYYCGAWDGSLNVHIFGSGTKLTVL

Binder	binding result [1]	binding result [2]	binding result [3]	Kd [4]	Kd [5]	Kd [6]	Kd [7]	fold change of KD against human DH677.3 [8]	binding result [9]	binding result [10]
B1	binds	binds	binds	–	–	–	–	–	–	–
B2	–	–	–	1.1 µM	1 µM	1.1 µM	1.3 µM	–	–	–
B3	–	–	–	1.5 µM	1.6 µM	1.6 µM	1.9 µM	–	–	–
B4	binds	binds	–	–	–	–	–	~8 fold	binds	–
B5	binds	binds	binds	–	–	–	–	–	binds	–
B6	–	–	–	4.6 µM	2.9 µM	2 µM	4.6 µM	–	–	–
B7	binds	binds	binds	–	–	–	–	–	binds	–
B8	–	–	–	–	–	–	–	–	–	binds
